Test results reported in paper PMC5907806 (Nature, 2017).
Where two headings read alike, the source gives them in different places.

How the values were obtained:
[1] = biological target: T1, RNA polymerase II (12-subunit);Rad26 (Saccharomyces cerevisiae;Saccharomyces …, UniProt P04050;P08518;P16370;P20433;P20434;P20435;P34087;P20436;P27999;P22139;P38902;P40 …, |); assay: EMSA
[2] = biological target: T1, RNA polymerase II (12-subunit);Rad26; assay: EMSA; remark: listed apart in the source
[3] = biological target: T1, RNA polymerase II (12-subunit);Rad26; assay: EMSA; remark: listed apart in the source
[4] = biological target: T1, RNA polymerase II (12-subunit);Rad26; assay: EMSA; remark: listed apart in the source
[5] = biological target: T1, RNA polymerase II (12-subunit);Rad26; assay: EMSA; remark: listed apart in the source
[6] = biological target: T1, RNA polymerase II (12-subunit);Rad26; assay: EMSA; remark: listed apart in the source
[7] = biological target: Rpb2 subunit of S. cerevisiae RNA polymerase II (S. cerevisiae, UniProt P08518 1-1224); assay: cryo-EM structure
Sequence of Rpb2 subunit of S. cerevisiae RNA polymerase II (P08518 whole entry): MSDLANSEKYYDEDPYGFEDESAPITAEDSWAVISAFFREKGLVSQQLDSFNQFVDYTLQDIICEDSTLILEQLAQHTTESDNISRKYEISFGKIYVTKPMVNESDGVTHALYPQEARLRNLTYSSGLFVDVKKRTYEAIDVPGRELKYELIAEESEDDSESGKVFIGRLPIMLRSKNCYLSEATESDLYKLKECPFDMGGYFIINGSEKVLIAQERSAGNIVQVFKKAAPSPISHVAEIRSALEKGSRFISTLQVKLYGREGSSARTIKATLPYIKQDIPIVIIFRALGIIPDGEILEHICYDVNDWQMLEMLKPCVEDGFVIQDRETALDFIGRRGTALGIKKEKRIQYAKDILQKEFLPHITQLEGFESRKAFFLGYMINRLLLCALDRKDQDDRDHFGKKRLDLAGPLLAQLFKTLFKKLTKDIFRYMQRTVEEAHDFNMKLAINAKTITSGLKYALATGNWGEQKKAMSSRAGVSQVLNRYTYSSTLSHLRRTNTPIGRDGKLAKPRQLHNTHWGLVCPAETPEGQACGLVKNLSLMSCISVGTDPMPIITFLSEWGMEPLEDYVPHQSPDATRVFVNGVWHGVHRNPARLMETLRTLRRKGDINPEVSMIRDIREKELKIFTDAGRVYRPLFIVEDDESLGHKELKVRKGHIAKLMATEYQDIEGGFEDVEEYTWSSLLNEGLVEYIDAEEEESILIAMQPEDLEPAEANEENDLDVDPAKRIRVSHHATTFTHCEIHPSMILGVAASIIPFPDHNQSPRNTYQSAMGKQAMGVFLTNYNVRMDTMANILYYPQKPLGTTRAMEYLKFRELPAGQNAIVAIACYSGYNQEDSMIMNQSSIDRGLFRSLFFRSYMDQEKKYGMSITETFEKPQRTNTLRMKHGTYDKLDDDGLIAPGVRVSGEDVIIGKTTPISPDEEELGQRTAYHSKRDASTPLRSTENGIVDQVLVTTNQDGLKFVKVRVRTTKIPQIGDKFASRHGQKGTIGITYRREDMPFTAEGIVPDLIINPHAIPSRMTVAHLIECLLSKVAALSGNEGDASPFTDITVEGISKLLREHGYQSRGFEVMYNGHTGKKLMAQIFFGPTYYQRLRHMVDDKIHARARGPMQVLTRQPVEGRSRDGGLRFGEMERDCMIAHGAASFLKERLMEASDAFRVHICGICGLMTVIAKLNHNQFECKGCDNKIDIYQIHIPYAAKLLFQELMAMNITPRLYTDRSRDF

B1: non-damaged TT scaffold (mixed)
DNA 1: CGAGCAGATCTCATAGCCCATTCCTACTAAGGAGAAGGAGCAGAGCG
DNA 2: CGCTCTGCTCCTTCTCCTTTCCTCTCGATGGCTATGAGATCTGCTCG
RNA: AUCGAGAGGA
B1: binds [1].

B2: AT-rich upstream fork scaffold (mixed)
DNA 1: CGAGCAGATCTCATATTTCATTCCTACTTGGGAGAAGGAGCAGAGCG
DNA 2: CGCTCTGCTCCTTCTCCCATCCTCTCGATAAATATGAGATCTGCTCG
RNA: AUCGAGAGGA
B2: binds [2].

B3: CPD lesion scaffold (mixed)
DNA 1: CGAGCAGATCTCATAGCCCATTCCTACTAAGGAGAAGGAGCAGAGCG
DNA 2: CGCTCTGCTCCTTCTCCTTTCCTCTCGATGGCTATGAGATCTGCTCG
RNA: AUCGAGAGGA
modifications: CPD at TT of TS (nt 18-19)
B3: binds [3].

B4: 10+3 bubble scaffold (mixed)
DNA 1: CGAGCAGATCTCATAGCCCATTCCTACTCATGAGAAGGAGCAGAGCG
DNA 2: CGCTCTGCTCCTTCTCCCATCCTCTCGATGGCTATGAGATCTGCTCG
RNA: AUCGAGAGGA
B4: binds [4].

B5: 3+10+3 bubble scaffold (mixed)
DNA 1: CGAGCAGATCTCATATTTCATTCCTACTCATGAGAAGGAGCAGAGCG
DNA 2: CGCTCTGCTCCTTCTCCCATCCTCTCGATGGCTATGAGATCTGCTCG
RNA: AUCGAGAGGA
B5: binds [5].

B6: 3+10 bubble scaffold (mixed)
DNA 1: CGAGCAGATCTCATATTTCATTCCTACTTGGGAGAAGGAGCAGAGCG
DNA 2: CGCTCTGCTCCTTCTCCCATCCTCTCGATGGCTATGAGATCTGCTCG
RNA: AUCGAGAGGA
B6: binds [6].

B7: Saccharomyces cerevisiae Rad26 (natural protein, S. cerevisiae, UniProt P40352 1-1085, looked up)
chain: MEDKEQQDNAKLENNESLKDLGVNVLSQSSLEEKIANDVTNFSNLQSLQQEETRLERSKTALQRYVNKKNHLTRKLNNTTRISVKQNLRDQIKNLQSDDIERVLKDIDDIQSRIKELKEQVDQGAENKGSKEGLQRPGETEKEFLIRTGKITAFGHKAGFSLDTANREYAKNDEQKDEDFEMATEQMVENLTDEDDNLSDQDYQMSGKESEDDEEEENDDKILKELEDLRFRGQPGEAKDDGDELYYQERLKKWVKQRSCGSQRSSDLPEWRRPHPNIPDAKLNSQFKIPGEIYSLLFNYQKTCVQWLYELYQQNCGGIIGDEMGLGKTIQVIAFIAALHHSGLLTGPVLIVCPATVMKQWCNEFQHWWPPLRTVILHSMGSGMASDQKFKMDENDLENLIMNSKPSDFSYEDWKNSTRTKKALESSYHLDKLIDKVVTDGHILITTYVGLRIHSDKLLKVKWQYAVLDEGHKIRNPDSEISLTCKKLKTHNRIILSGTPIQNNLTELWSLFDFIFPGKLGTLPVFQQQFVIPINIGGYANATNIQVQTGYKCAVALRDLISPYLLRRVKADVAKDLPQKKEMVLFCKLTKYQRSKYLEFLHSSDLNQIQNGKRNVLFGIDILRKICNHPDLLDRDTKRHNPDYGDPKRSGKMQVVKQLLLLWHKQGYKALLFTQSRQMLDILEEFISTKDPDLSHLNYLRMDGTTNIKGRQSLVDRFNNESFDVFLLTTRVGGLGVNLTGANRIIIFDPDWNPSTDMQARERAWRIGQKREVSIYRLMVGGSIEEKIYHRQIFKQFLTNRILTDPKQKRFFKIHELHDLFSLGGENGYSTEELNEEVQKHTENLKNSKSEESDDFEQLVNLSGVSKLESFYNGKEKKENSKTEDDRLIEGLLGGESNLETVMSHDSVVNSHAGSSSSNIITKEASRVAIEAVNALRKSRKKITKQYEIGTPTWTGRFGKAGKIRKRDPLKNKLTGSAAILGNITKSQKEASKEARQENYDDGITFARSKEINSNTKTLENIRAYLQKQNNFFSSSVSILNSIGVSLSDKEDVIKVRALLKTIAQFDKERKGWVLDEEFRNNNAS
B7: binds [7].
